Patent US20030013634A1, “Synthesis of small particles” (priority 2000, published 2003)

What was measured:
[1] = values reported in the literature; cited from earlier work
[2] = Median particle size by laser diffraction; assay type: physicochemical; settings: for median particle size: laser diffraction, agglomerated insulin powder, Example 5
Description: These fine insulin particles may aggregate to form larger particles due to intermolecular interaction between the molecules. […] Insulin precipitated as nano-sized particles, was also agglomerated to micron-sized particles.

[3] = Particle size and morphology by SEM; assay type: physicochemical
Description: These fine insulin particles may aggregate to form larger particles due to intermolecular interaction between the molecules.

[4] = Insulin deamidation testing by reverse phase HPLC; assay type: physicochemical; settings: 2 mg/mL, after particle formation
Protocol: In order to determine the percentage of insulin that was deamidated by the process, a test of the insulin was performed using high performance liquid chromatography (HPLC). A reverse phase column (Symmetry® C18, 5 μm packing, 4.6 mm×150 mm) was used to separate the deamidated from the non-deamidated insulin. The gradient method was used with eluents 0.1% trifluoroacetic acid/acetonitrile 26% to 33% and the flow rate of 1 mL/min. The absorbance was monitored at 280 nm.
The percentage of deamido insulin was determined by comparing the peak area of the degradation product to the area of standard insulin containing the same concentration of insulin (2 mg/mL).

[5] = Aerosol characterisation by impaction (Marple-Miller / Cascade Impactor); assay type: physicochemical
Protocol: In order to determine the aerosol performance of the protein particles, in vitro testing of the particles was assessed using a 5 stage Marple-Miller Impactor (Model 160, MSP Corporation, USA) with cut-off diameters of […]. The Marple-Miller impactor consisted of a stainless steel inlet throat, five impaction stages and an integral filter stage. The stages were previously coated with propylene glycol/methanol (50:50) to prevent particle bounce, thus minimising the probability of carry over of coarse particles onto lower stages.
A mass of 10-20 mg of insulin was weighed into a gelatin capsule (size 3, Park Davis, Australia) and was immediately dispersed by a powder inhaler device, Dinkihaler (Aventis, Frankfurt, Germany) into the Marple Miller Impactor at 60 L/min using a vacuum source (ERWEKA GMBH, Germany).
The fraction of the protein recovered in each stage was calculated by measuring the absorbance of the protein solution against the absorbance of a standard 1% solution of insulin.

[6] = Biochemical integrity by size exclusion chromatography (monomer content); assay type: physicochemical; settings: for biological activity as indicated by the in vitro test for monomer content: after processing with the anti-solvent
Protocol: A protein-Pak 125 column (Waters, USA) was used for insulin. The mobile phase consisted of 50 mM sodium phosphate buffer at pH 3 with 300 mM sodium chloride. The powder samples were dissolved to prepare 1 mg/mL solution in deionised water by gentle shaking for 10 minutes to have complete dissolution. The supernatant was filtered through […] membrane filter and then injected into the HPLC column. […] The software Millennium 3.5 was used in the quantification of the monomer content.

insulin: Low endotoxin bovine insulin (Sigma), precipitated as fine particles from aqueous solution by the ASES process
maximum FPM obtained by other methods [1]: ≤ 10%
median particle size [2]: 5 μm
median particle size ([2]; listed as Insulin): about 5 μm
size of nano-sized particles ([3]; modified dual vessel apparatus (FIG. 10b)): 50-500 nm
size of nano-sized particles ([3]; single-stage apparatus (FIG. 9b)): 50-500 nm
percentage of deamido insulin [4]: 3.0%
FPM (%) fine particle mass, mass fraction of particles below 5 μm ([5]; 2-stage process): 45%
fine particle fraction (% <5 μm) ([5]; Marple Miller Impactor, Dinkihaler, 60 L/min): at least 42%
FPM (%) fine particle mass, mass fraction of particles below 5 μm ([5]; single stage production unit): 20%
monomer content ([6]; 1 mg/mL in deionised water, after particle formation): 99.5%

Ethane-ethanol
D(0.5, V) median particle size based on volume ([2]; 2-stage process): 4.8 +/− 0.4
D(0.5, V) median particle size based on volume ([2]; single stage production unit): 12.8 +/− 1.0
FPM (%) fine particle mass, mass fraction of particles below 5 μm ([5]; 2-stage process): 43.5%
increase in the amount of material less than 5 μm aerodynamic diameter ([5]; 2-stage versus single stage process): 100%
fraction of particles with a size >10 μm ([5]; aerodynamic particle size distribution, FIG. 4): around 45%
FPM (%) fine particle mass, mass fraction of particles below 5 μm ([5]; single stage production unit): 20.0%
biological activity as indicated by the in vitro test for monomer content [6]: retention of biological activity

CO2-ethanol: Insulin particles precipitated using carbon dioxide modified with 20 mol % ethanol as anti-solvent (comparison)
D(0.5, V) median particle size based on volume ([2]; 2-stage process): 8.2 +/− 0.6
D(0.5, V) median particle size based on volume ([2]; single stage production unit): 11.8 +/− 1.6
FPM (%) fine particle mass, mass fraction of particles below 5 μm ([5]; 2-stage process): 21.9%
biological activity as indicated by the in vitro test for monomer content [6]: significant deactivation
